Here are results for one molecule from publication PMC3985960 (2014).

The test deals with T1, methylamine dehydrogenase (quinone MADH) (Paracoccus denitrificans, UniProt P22619).
T1 chain 1: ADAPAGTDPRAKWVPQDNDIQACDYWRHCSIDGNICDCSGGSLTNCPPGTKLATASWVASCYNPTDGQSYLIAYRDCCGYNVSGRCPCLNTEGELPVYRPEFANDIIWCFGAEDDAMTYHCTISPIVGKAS
T1 chain 2: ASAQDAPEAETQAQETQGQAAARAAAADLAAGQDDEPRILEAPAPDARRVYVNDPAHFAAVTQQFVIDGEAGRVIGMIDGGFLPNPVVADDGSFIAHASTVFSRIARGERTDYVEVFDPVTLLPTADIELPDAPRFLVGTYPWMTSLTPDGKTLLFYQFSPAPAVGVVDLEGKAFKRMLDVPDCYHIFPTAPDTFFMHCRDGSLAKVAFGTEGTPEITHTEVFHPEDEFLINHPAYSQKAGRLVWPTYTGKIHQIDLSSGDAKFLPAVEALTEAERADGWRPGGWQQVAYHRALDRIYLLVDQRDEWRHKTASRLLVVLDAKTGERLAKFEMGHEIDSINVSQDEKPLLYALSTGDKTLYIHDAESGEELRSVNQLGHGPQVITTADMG
Briefly: single-turnover kinetics.

B1: MauG (protein)
chain: EQARPADDALAALGAQLFVDPALSRNATQSCATCHDPARAFTDPREGKAGLAVSVGDDGQSHGDRNTPTLGYAALVPAFHRDANGKYKGGQFWDGRADDLKQQAGQPMLNPVEMAMPDRAAVAARLRDDPAYRTGFEALFGKGVLDDPERAFDAAAEALAAYQATGEFSPFDSKYDRVMRGEEKFTPLEEFGYTVFITWNCRLCHMQRKQGVAERETFTNFEYHNIGLPVNETAREASGLGADHVDHGLLARPGIEDPAQSGRFKVPSLRNVAVTGPYMHNGVFTDLRTAILFYNKYTSRRPEAKINPETGAPWGEPEVARNLSLAELQSGLMLDDGRVDALVAFLETLTDRRYEPLLEESRAAQKD
What is called Kd is the free concentration of one partner at which half of the binding sites on the other are occupied at equilibrium, for simple one-to-one binding. Higher therefore signals weaker binding. Regarding B1, the Kd worked out at 10.4 µM.
